Variants at the floor of the assay were thinned out.
B1: TPR 5TU (parent)
chain: GGAUCUUCUCGAUCUAACAAAAAAGACAAAUCUGCCACAAAGCUUGAGAGCAUCUUCGGAUGCAGAGGCGGCAGCCUUCGGUGGCGCGAUAGCGCCAACGUUCUCAACUAUGACACGCAAAACGCGUGCUCCGUUGAAUGGAGUUUAUCAUG

Variants of: B1
Assay: polymerase ribozyme fitness, log enrichment relative to wild type (log ratio); higher = more active; in vitro selection for triplet polymerase activity
In short: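 Both subunits of a heterodimeric triplet polymerase ribozyme were given their own mutant library, built by PCR and transcribed. Each library was annealed with a biotinylated primer, the partner subunit and triplets, incubated frozen at −7 °C, and its extended constructs gel-excised, captured on streptavidin beads and amplified by RT-PCR, all in one round done in triplicate. Fitness is the logarithm of genotype enrichment relative to wild-type enrichment, with replicates averaged by inverse-variance weighting. That logarithm is base 2, and Illumina-sequenced genotypes needed ≥10 input reads and ≥1 read per output.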

Variant	polymerase ribozyme fitness (log ratio)
G74C A89U U146C	≤ -4.2
C75A C95G C96U	≤ -4.2
G71A C85G C87U	≤ -4.2
A73U U102G	≤ -4.2
G70C C87G C96G A107G U146G	≤ -4.2
G70A A97G	-3.26
G70A A97U	-3.59
G74A U148A	≤ -4.2
A73G G126C	0.529
A73G G126U	-0.214
G71A G86A	-3.5
C75U C93G A121U C123U	-2.27
C72G A91C	≤ -4.2
G70A A122U	-3.6
A73U C75G G88C	≤ -4.2
G71C G84A A119U	-2.68
C69U G94A A122G U135A U146G	-2.95
A73U C93U G136A	-1.59
G74C G92U	-4.02
C75U A122U	-0.205
G71U A120G U146C	-2.36

Variant	polymerase ribozyme fitness (log ratio)
G71U A89U U135A	≤ -4.2
G71C G92A	≤ -4.2
G71C G92U	-3.46
G70A G83U C105A A147C U148A	≤ -4.2
G71U A142C	≤ -4.2
C69U G84A A106C	-2.41
C75U A91C A119G G136U	≤ -4.2
G70A A91U C123U A138C C149U	≤ -4.2
G71A U104C	-3.42
A73G C85U C96G C108G U127G G136C	≤ -4.2
G70A G74C C125G U144G	≤ -4.2
G70U G84U C87U G100A	≤ -4.2
C75G G94C	-3.53
C75G G94A	-4.08
C75G C129U	≤ -4.2
C72U G86A C95A A97G A98U U104A A122U	≤ -4.2
A73G C93A A110C U139A	≤ -4.2
C72U C96G U127C C131U G140U U151A	≤ -4.2
C69U G84U G133C	-3.62
G71U G86U C125A A138G	-3.99
C75U C79A	≤ -4.2

Variant	polymerase ribozyme fitness (log ratio)
C75G G92U C103G A122C	≤ -4.2
G70C G92U	-3.01
C72U C85G	-1.95
C72G C96U C116U	≤ -4.2
G71A A91U U146G	≤ -4.2
G70A U101C C103G C123U	≤ -4.2
C72U G83A C93U U111C A120U G143U	≤ -4.2
A73G G83U G84U	-1.48
C72G	-3.79
C72A	-3.87
C72U	-0.00972
C72A A91U U145A	≤ -4.2
C75U C85U G86C	-1.49
A73U G83A	-1.97
C72U G152A	-2.42
A73U C105G	-3.79
C72A G81U G83C C93U	≤ -4.2
G71U G74C A120C	≤ -4.2
A73U C103G	≤ -4.2
A73C G81C A110G A121G	≤ -4.2
A73G A89U	-0.161

Variant	polymerase ribozyme fitness (log ratio)
G70A G100C	≤ -4.2
C75G G88A U146G	≤ -4.2
C75U A121G	-0.596
C72U G86C C105A C114U G140U	≤ -4.2
A73U C85A	-2.44
C72U C87A A98U A138C	≤ -4.2
G70A C87U A106G	-2.89
G71A C85U C96A A107G C118A	≤ -4.2
A73U G92U G141A U145A	-3.24
A73U G84A G92A A122C U134A	≤ -4.2
A73G C93U A110U	≤ -4.2
C75G G81A G92U C125G	≤ -4.2
C69U G100A A137C	≤ -4.2
C72U C96A C105U C132U	-1.29
G70U G81A	-2.35
A73U C123U	-0.392
G70U C87A A115U C116A U151A	≤ -4.2
G74A G100U U104C U109G U146A	≤ -4.2
C69U G126A	0.958
C75G A142U	-3.7

— the RNAGym collection of RNA variant scans (doi:10.1073/pnas.2313332121)
